A word on the Kd: it is the constant that tells how readily two partners part at equilibrium. Read a high Kd as weaker binding.

For experiment [1], the target named is PR8 HA as used for cryo-EM with Fabs (Influenza A virus A/Puerto Rico/8/1934 …, UniProt P03452). Nature of the experiment: cryo-EM structure. Particulars: both partners purified.
The target in experiment [2] is single site-biotinylated PR8 HA (as loaded on streptavidin biosensors for BLI) (influenza virus strain A/Puerto Rico/8/1934 (PR8)) (UniProt P03452). Nature of the experiment: BLI; Octet RED96; […]; association 300 s, dissociation 600 s; global fit 1:1.
The target in experiment [3] is recombinant hemagglutinin (HA) from influenza virus strain A/Puerto Rico/8/1934 (PR8), cysteine-crosslinked, … (Influenza A virus A/Puerto Rico/8/1934 …, UniProt P03452). The experiment is described as follows: ELISA. As to conditions: both partners purified. A general note: ELISA stands for enzyme-linked immunosorbent assay.
Chain of recombinant hemagglutinin (HA) from influenza virus strain A/Puerto Rico/8/1934 (PR8), cysteine-crosslinked, … (P03452 18-338): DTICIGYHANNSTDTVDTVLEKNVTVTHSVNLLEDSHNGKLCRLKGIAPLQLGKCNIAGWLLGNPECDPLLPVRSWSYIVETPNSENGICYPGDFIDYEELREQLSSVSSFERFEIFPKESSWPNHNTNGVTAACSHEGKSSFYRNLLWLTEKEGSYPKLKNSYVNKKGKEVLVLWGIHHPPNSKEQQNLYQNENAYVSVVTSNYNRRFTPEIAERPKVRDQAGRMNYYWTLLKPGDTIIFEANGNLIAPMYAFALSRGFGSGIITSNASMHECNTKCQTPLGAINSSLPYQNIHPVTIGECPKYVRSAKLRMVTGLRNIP

Chain of single site-biotinylated PR8 HA (as loaded on streptavidin biosensors for BLI) (influenza virus strain A/Puerto Rico/8/1934 (PR8)) (P03452 18-338): as above
Chain of PR8 HA as used for cryo-EM with Fabs (P03452 18-338): as above

B1: Fab Cb (Fab 73.1) (Fab, V domains shown)
VH: QVQLQQSGAELVRPGTSVKISCKASGYTFSNYWLGWLKQRPGHGLEWIGDIYPGGGYTNYNEKLKGKATLTADTSSSTAYMQLSSLTSEDSAVYFCARPRYGDYWYFDVWGAGTTVTVSS
VL: VHSALMAASPGEKVTITCSVSSSISSSNLHWYQQKSETSPKPWIYGTSNLASGVPVRFSGSGSGTSYSLTISSMEAEDAATYYCQQWSSYPLTFGAGTKLELK
With B1, the binding result in experiment [1] is reported as “binds”. In experiment [2], this molecule returned a Kd of 0.03 µM.

B2: mAb 73.1 (clone Cb), recombinant monoclonal antibody (antibody, V domains shown)
VH: B1 VH
VL: B1 VL
notes: copies: 2 + 2
In the case of B2, the binding result in experiment [3] was “binds”.

For the origin of these results see publication doi:10.1101/2025.11.06.686519 (bioRxiv, 2025).
